Data taken from paper doi:10.1101/2025.08.12.669934 (bioRxiv, 2025).
Numbering of substitutions follows the chain as printed. Each block holds one binder with its values, some of them ahead of it.

Legend:
[1] = target: Vps13 F^2465A Y^2466A ^GFP (S. cerevisiae, UniProt Q07878 1-3144, F^2465A | Y^2466A); assay: co-IP
Vps13^GFP (wild type) = Vps13^GFP (wild type) (S. cerevisiae, UniProt Q07878 1-3144); assay: co-IP

percent recovery relative to WT [1]: 24%
B1: Ypt35-3HA (natural protein, S. cerevisiae, UniProt P38815 1-214, looked up)
chain: MSDKISFLPPEPIQLLDEDSTEPELDIDSQQENEGPISASNSNDSTSHSNDCGATITRTRPRRSSSINANFSFQKAHVSDCTIVNGDHGTKFAVWRITVFLEPNLKAFAAKRESYKIQTYKRYSDFVRLRENLLTRIKTAKPEKLNCLQIPHLPPSVQWYSSWKYQEVNLNKDWLAKRQRGLEYFLNHIILNSSLVEMTKDILIQFLEPSKRVA

percent recovery relative to WT (Vps13^GFP (wild type)): 19%
B2: Ypt35 P^10,12A -3HA (natural protein, S. cerevisiae, UniProt P38815 1-214, looked up)
chain: B1 chain with P10A, P12A
